According to paper PMC10641296 (2023):
Values joined by “and” are separate entries in the source; they are usually repeats but may differ in a detail not shown here. Identical values can stand only once.

Columns and labels:
[1] = biological target: recombinant histidine-tagged SCM-2 of S. canis strain IMT40096 (Streptococcus canis); assay: SPR
[2] = biological target: recombinant histidine-tagged SCM-2 of S. canis strain IMT42870 (Streptococcus canis); assay: SPR

B1: human fibrinogen (complex)
chain 1: GPRVVERHQSACKDSDWPFCSDEDWNYKCPSGCRMKGLIDEVNQDFTNRINKLKNSLFEYQKNNKDSHSLTTNIMEILRGDFSSANNRDNTYNRVSEDLRSRIEVLKRKVIEKVQHIQLLQKNVRAQLVDMKRLEVDIDIKIRSCRGSCSRALAREVDLKDYEDQQKQLEQVIAKDLLPSRDRQHLPLIKMKPVPDLVPGNFKSQLQKVPPEWKALTDMPQMRMELERPGGNEITRGGSTSYGTGSETESPRNPSSAGSWNSGSSGPGSTGNRNPGSSGTGGTATWKPGSSGPGSTGSWNSGSSGTGSTGNQNPGSPRPGSTGTWNPGSSERGSAGHWTSESSVSGSTGQWHSESGSFRPDSPGSGNARPNNPDWGTFEEVSGNVSPGTRREYHTEKLVTSKGDKELRTGKEKVTSGSTTTTRRSCSKTVTKTVIGPDGHKEVTKEVVTSEDGSDCPEAMDLGTLSGIGTLDGFRHRHPDEAAFFDTASTGKTFPGFFSPMLGEFVSETESRGSESGIFTNTKESSSHHPGIAEFPSRGKSSSYSKQFTSSTSYNRGDSTFESKSYKMADEAGSEADHEGTHSTKRGHAKSRPVRDCDDVLQTHPSGTQSGIFNIKLPGSSKIFSVYCDQETSLGGWLLIQQRMDGSLNFNRTWQDYKRGFGSLNDEGEGEFWLGNDYLHLLTQRGSVLRVELEDWAGNEAYAEYHFRVGSEAEGYALQVSSYEGTAGDALIEGSVEEGAEYTSHNNMQFSTFDRDADQWEENCAEVYGGGWWYNNCQAANLNGIYYPGGSYDPRNNSPYEIENGVVWVSFRGADYSLRAVRMKIRPLVTQ
chain 2: GHRPLDKKREEAPSLRPAPPPISGGGYRARPAKAAATQKKVERKAPDAGGCLHADPDLGVLCPTGCQLQEALLQQERPIRNSVDELNNNVEAVSQTSSSSFQYMYLLKDLWQKRQKQVKDNENVVNEYSSELEKHQLYIDETVNSNIPTNLRVLRSILENLRSKIQKLESDVSAQMEYCRTPCTVSCNIPVVSGKECEEIIRKGGETSEMYLIQPDSSVKPYRVYCDMNTENGGWTVIQNRQDGSVDFGRKWDPYKQGFGNVATNTDGKNYCGLPGEYWLGNDKISQLTRMGPTELLIEMEDWKGDKVKAHYGGFTVQNEANKYQISVNKYRGTAGNALMDGASQLMGENRTMTIHNGMFFSTYDRDNDGWLTSDPRKQCSKEDGGGWWYNRCHAANPNGRYYWGGQYTWDMAKHGTDDGVVWMNWKGSWYSMRKMSMKIRPFFPQQ
chain 3: YVATRDNCCILDERFGSYCPTTCGIADFLSTYQTKVDKDLQSLEDILHQVENKTSEVKQLIKAIQLTYNPDESSKPNMIDAATLKSRKMLEEIMKYEASILTHDSSIRYLQEIYNSNNQKIVNLKEKVAQLEAQCQEPCKDTVQIHDITGKDCQDIANKGAKQSGLYFIKPLKANQQFLVYCEIDGSGNGWTVFQKRLDGSVDFKKNWIQYKEGFGHLSPTGTTEFWLGNEKIHLISTQSAIPYALRVELEDWNGRTSTADYAMFKVGPEADKYRLTYAYFAGGDAGDAFDGFDFGDDPSDKFFTSHNGMQFSTWDNDNDKFEGNCAEQDGSGWWMNKCHAGHLNGVYYQGGTYSKASTPNGYDNGIIWATWKTRWYSMKKTTMKIIPFNRLTIGEGQQHHLGGAKQVRPEHPAETEYDSLYPEDDL
Which Kd [1] does the source give for B1 here?
Its Kd is 15.5 nM and 14.3 nM and 15.1 nM.

What about the koff [1] of the same binder?
The koff was 0.000922 s⁻¹ and 0.000948 s⁻¹ and 0.000989 s⁻¹.

And the Kd [2]?
The Kd was 177 nM and 188 nM and 208 nM.

What about the koff [2] of the same binder?
The koff was 0.00271 s⁻¹ and 0.0024 s⁻¹ and 0.00216 s⁻¹.
